Source: US11161912B2, “Heparanase-neutralizing monoclonal antibodies” (Technion Research & Development Foundation Limited, priority 2015, dated 2021)

Test system: Raji-luciferase cells
Assay: Raji-luciferase lymphoma, tail vein inoculation, bone marrow growth by IVIS imaging
Assay type: in vivo, human
Conditions: mAb 600 μg/mouse every other day, IVIS
Procedure: Tumorigenicity. Luciferase-labelled CAG myeloma (5×10^6) or Raji lymphoma (1×10^6) cells were injected into the tail vein of NOD/SCID mice (n=5). Mice were treated with PG545 (20 mg/kg, once weekly), mAb 9E8 (600 μg/mouse) every other day starting one day following cell inoculation and tumor growth was examined by IVIS imaging. At termination, mice were sacrificed, the backbones were excised, fixed in formalin and following de-calcification with 10% EDTA solution were embedded in paraffin and subjected to histological and immunohistochemical analyses essentially as described (Weissmann et al, 2016, Proc Natl Acad Sci USA 113:704-709). Dose of 25-30 mg/kg (i.e., 500-600 μg mAb/mouse) is typical in cancer restraining experiments (Van Looy T, et al. 2015, Transl Oncol 8(2):112-118).
IVIS imaging. Bioluminescent imaging of the luciferase-expressing tumors was performed with a highly sensitive, cooled charge coupled device (CCD) camera mounted in a light-tight specimen box (IVIS; Xenogen Corp., Waltham, Mass.). Briefly, mice were injected intraperitoneally with D-luciferin substrate at 150 mg/kg, anesthetized and placed onto a stage inside the light-tight camera box, with continuous exposure to isoflurane (EZAnesthesia, Palmer, Pa.). Light emitted from the bioluminescent cells was detected by the IVIS camera system with images quantified for tumor burden using a log-scale color range set at 5×10^4 to 1×10^7 and measurement of total photon counts per second (PPS) using Living Image software (Xenogen) (Weissmann et al, 2016, Proc Natl Acad Sci USA 113:704-709).
FIG. 4A. Raji-luciferase cells (1×10^6) were injected into the tail vein of NOD/SCID mice (n=5). Mice were treated with PG545 (20 mg/kg once a week) starting one day after cell inoculation and IVIS imaging was applied to quantify tumor load. […] NOD/SCID mice (n=5) were inoculated (iv) with Raji-luciferase cells and mice were treated with mAb 9E8 (600 μg/mouse every other day) (FIG. 4C) and tumor growth was evaluated by IVIS imaging (left panels). Quantification of luciferase signals is shown graphically in the right lower panel.

B1: mAb 9E8: monoclonal IgM raised against KKDC peptide (Lys158-Asn171) of heparanase; VH SEQ ID NO: 7, VL SEQ ID NO: 8 (antibody)
VH: EVKLLESGGGLVQPGGSLKLSCAASGFDFSRYWMSWVRQAPGKGLEWIGEINPDSSTINYTPSLKDKFIISRDNAKNTLYLQMSKVRSEDTALYYCARRGYEGNYAMDYWGQGTSVTVSSESQSFPNVFPLVSCESPLSDKNLVAMGCLAR
VL: DIVMTQAAPSVPVTPGESVSISCRSSKSLLHSNGNTYLYWFLQRPGQSPQLLIYRMSNLASGVPDRFSGSGSGTAFTLRISRVEAEDVGVYYCMQHLEYPFTFGSGTKLEIKRADAAPTVSIFPPSSEQLTSGGASVVCFL
modifications: IgM constant regions
decrease of Raji cell growth (luciferase signal): 2-3 fold
